Measured values from the supplement of paper PMC9170038.

Test system: MS2 coat protein
Experiment: apparent KD of MS2 coat protein; designed switch direction (-1 OFF switch, 1 ON switch): -1; higher = weaker reporter binding
In short: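 Stalled E. coli RNA polymerase transcribed designed RNA switches on Illumina chips, which were then titrated with SNAP-549-labelled MS2 coat protein, doubling from 0.7 or 1.5 nM to 3 µM. Steps lasted from 0.8–1.5 h at the lowest concentration to 10–20 min at the highest. The apparent KD is each design's median over clusters of curve-fitted normalised fluorescence.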

[1] = Eterna round: R95, input ligand: FMN 200 uM
[2] = Eterna round: R95, input ligand: microRNA oligo, concentration not stated
[3] = Eterna round: R95, input ligand: none
[4] = input ligand: microRNA oligo, concentration not stated

GGUUUGUAAGGAUAUCCGAGAGGUAGGUGAGGGUUAGGGAAGGAGAAGGUACAUGAGGAUCACCCAUGUAAGGG [AK-MS2ROC-r4-exclusion4-10] (Eterna round: R97, puzzle: Exclusion 4)
apparent KD of MS2 coat protein (input ligand: FMN 200 uM): 127 nM
apparent KD of MS2 coat protein (input ligand: none): 102 nM

AGAAGUAGAAACCGAUCCUACAUGAGGAUCACCCAUGUAGCAAGACGUGCACGCGAAGCUCGUCAGACUACCAGACG [salish99_TOv1_r3_019] (puzzle: Sensor v3, turn-off variant 1)
apparent KD of MS2 coat protein [1]: 152 nM
apparent KD of MS2 coat protein [2]: 175 nM
apparent KD of MS2 coat protein [3]: 249 nM

ACUGUUCGAGGAUAUACGAUCGUGCUUCGGCACGUAAGAUCACAUGAGGAUCACCCAUGUAGAAGGCGAACAGU [Mod 5 - Jieux - Exclusion 2] (Eterna round: R97, puzzle: Exclusion 2)
apparent KD of MS2 coat protein (input ligand: FMN 200 uM): 292 nM
apparent KD of MS2 coat protein (input ligand: none): 38.6 nM

UUUAGUUCAGGAUAUGUAGAUUUUAACAUGAGGAUCACCCAUGUAGAUCCUGAAUUAACUACAGAAGGGAACAUUU [Exclusion 5: 2:a] (puzzle: Exclusion 5)
apparent KD of MS2 coat protein [2]: 24.9 nM

CCAGUGUAAGGAUAUGACAAUGGUAUCUUCGGAUACCAUUGUCAGAAGGUACAUGAGGAUCACCCAUGUAACAC [Ex4-3: 12] (puzzle: Exclusion 4)
apparent KD of MS2 coat protein [2]: 15.3 nM

GAUGAGGUAGGAUAUACGAGAAUAUAGGGUAGAUAUAUAACACAUGAGGAUCACCCAUGUAGAAGGACCAGUAG [Mat - Exclusion 2 - Mod of my Tesla design - D70] (puzzle: Exclusion 2)
apparent KD of MS2 coat protein [2]: 33.6 nM

AAGGAAAAGUGAGGAUAUGGAAAUUUGGUGAUAACAUGAGGAUCACCCAUGUGAAAACAAUAAAAUUAGAAGGUAUAAAGAAAA [AK ExNG2-1.1] (Eterna round: R96, puzzle: Exclusion NG 2)
apparent KD of MS2 coat protein (input ligand: FMN 200 uM): 120 nM
apparent KD of MS2 coat protein [4]: 66.7 nM
apparent KD of MS2 coat protein (input ligand: none): 107 nM

UAUUAAACAAGCAGGUCCCACAUGAGGAUCACCCAUGUGCUCGUCUUAUAACGAUCUGUGGGAAAACCUACGGAUCG [Elimod 18 - Jieux - Sensor, turn-off variant 1] (Eterna round: R97, puzzle: Sensor, turn-off variant 1)
apparent KD of MS2 coat protein (input ligand: FMN 200 uM): 37.7 nM
apparent KD of MS2 coat protein (input ligand: none): 45.1 nM

AUUUUAUAUGAAGGAUAUACUUAACAUGAGGAUCACCCAUGUGGUGUUGUGAGUGAGUGAGUUUAGUAGAAGGUCAAUUCUUUU [JMF's solution 98] (Eterna round: R96, puzzle: Exclusion NG 2)
apparent KD of MS2 coat protein (input ligand: FMN 200 uM): 240 nM
apparent KD of MS2 coat protein [4]: 185 nM
apparent KD of MS2 coat protein (input ligand: none): 288 nM

CCUCCCUGAGGAUAUCCACCCUCAUACAUGAGGAUCACCCAUGUUCAUCCGUGGGUACCCGGAGAAGGCAGAUCUC [Megrez-b] (Eterna round: R97, puzzle: Exclusion 5)
apparent KD of MS2 coat protein (input ligand: FMN 200 uM): 81 nM
apparent KD of MS2 coat protein (input ligand: none): 85.9 nM

GGUAAGCUAGGAUAUGCUUUGGGAAAGCAUUCCUUCGAUAAACUUGAGGAUCACCCAAGUAGAAGGAGCUUACC [salish99_ex2_r4_016] (Eterna round: R97, puzzle: Exclusion 2)
apparent KD of MS2 coat protein (input ligand: FMN 200 uM): 19.8 nM
apparent KD of MS2 coat protein (input ligand: none): 11.8 nM

ACCUCACAUGAGGAUCACCCAUGUCAGGAUAUCUUUUAAACCGCGAAUCGCGGCGCUGAGAGAAGGGACAUUAA [EX1 #20] (Eterna round: R97, puzzle: Exclusion 1)
apparent KD of MS2 coat protein (input ligand: FMN 200 uM): 108 nM
apparent KD of MS2 coat protein (input ligand: none): 39.4 nM

AAAAGUUAAGGAUAUACAGGGAGCCGCGGCGACUCGCCGCAACAUGAGGAUCACCCAUGUAGAAGGUAGCCAAA [Enbibi] (puzzle: Exclusion 2)
apparent KD of MS2 coat protein [2]: 23.7 nM

CUCUUGGCAGGAUAUGCAAUUUUAGACAUGAGGAUCACCCAUGUGAUCAUUCCAUAUUAUGCAGAAGGGCCUAAAC [JR_E5_Sub049] (Eterna round: R96, puzzle: Exclusion 5)
apparent KD of MS2 coat protein (input ligand: FMN 200 uM): 238 nM
apparent KD of MS2 coat protein [4]: 27.4 nM
apparent KD of MS2 coat protein (input ligand: none): 39.2 nM

GCCGAUUAAGUCAGGAUAUACCUAUGGAUACAUAGGUAGAAGGGACAUGAGGAUCACCCAUGUUCCUCAUCGGC [Fiskers BMX 4 - 12] (puzzle: Brourd's mod of Exclusion 4)
apparent KD of MS2 coat protein [1]: 41.6 nM
apparent KD of MS2 coat protein [2]: 13.5 nM
apparent KD of MS2 coat protein [3]: 16.9 nM

ACCGCCGGCGUAAGGAUAUGUGAAGAAAUCCCUUUACAGAAGGUACAUGAGGAUCACCCAUGUCUUCUAGGACG [Eternabot (L1) Solution 96] (Eterna round: R97, puzzle: Brourd's mod of Exclusion 4)
apparent KD of MS2 coat protein (input ligand: FMN 200 uM): 21.3 nM
apparent KD of MS2 coat protein (input ligand: none): 22.3 nM
